One test concerns the target human myostatin (GDF8) (human, UniProt O14793 267-375). In words: cell-based or functional assay.
The target of test [1] is T1, TGF-β1 (UniProt P01137 279-390). Nature of the test: cell-based or functional assay.
For test [2], the target named is T1, TGF-β1. In words: SPR (Biacore) solution competition: trap coinjected with 5 nM TGF-β1 over immobilised 1D11 anti-TGF-β antibody; plateau response measures free TGF-β1. (In SPR one partner is held on a chip, and binding of the other changes the refractive index at the surface.)
For test [3], the target named is T1, TGF-β1. Nature of the test: SPR indirect binding assay: binder titrated against 5 nM TGF-β1, free TGF-β1 measured on the 1D11 surface. On the procedure: (§1) SPR data was generated using a Biacore 3000 instrument (G.E. Healthcare Inc.) using HBS as running buffer. […] A twenty-fold stock concentration of TGF-β (100 nM in 10 mM acetic acid) was used. […] Blank injection samples were made from 10 μl 10 mM acetic acid mixed with 190 uL HBS. […] All sensogram analysis was carried out using Biacore BiaEvaluation software v4.1 (G.E. Healthcare Inc.).

For a further test, the target named is TGF-β1 or -β3. In words: SPR (Biacore) solution competition: binder pre-incubated with 5 nM TGF-β (β1 or β3, isoform not named on the sheet), injected over immobilised 1D11 anti-TGF-β antibody; plateau response measures free TGF-β.
For test [4], the target named is T1, TGF-β1. In words: SPR (Biacore) solution competition: binder pre-incubated with 5 nM TGF-β1, injected over immobilised 1D11 anti-TGF-β antibody; plateau response measures free TGF-β1. On the procedure: as §1
For another test, the target named is T2, TGF-β2 (UniProt P61812 303-414).
T2 sequence (looked up): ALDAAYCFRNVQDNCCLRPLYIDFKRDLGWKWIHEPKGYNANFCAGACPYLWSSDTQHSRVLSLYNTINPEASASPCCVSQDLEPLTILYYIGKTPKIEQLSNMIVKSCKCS
In words: SPR (Biacore), 100 nM injected over immobilised TGF-β2.

The molecule ActRIIB monomer (receptor) yielded an IC50, neutralization of myostatin in A204 cells with (CAGA)12-luciferase reporter with human myostatin (GDF8) of 0.38 nM.

B1: N-His (TβRIIb)^2 (designed binder)
chain: APMAEGGGQNHHHHHHHHGGSFNPRIPPHVQKSVNNDMIVTDNNGAVKFPQLCKFCDVRFSTCDNQKSCMSNCSITSICEKPQEVCVAVWRKNDENITLETVCHDPKLPYHDFILEDAASPKCIMKEKKKPGETFFMCSCSSDECNDNIIFSEEYNTSNPDIPPHVQKSDVEMEAQKDEIICPSCNRTAHPLRHINNDMIVTDNNGAVKFPQLCKFCDVRFSTCDNQKSCMSNCSITSICEKPQEVCVAVWRKNDENITLETVCHDPKLPYHDFILEDAASPKCIMKEKKKPGETFFMCSCSSDECNDNIIFSEEYNTSNPD
notes: TβRII ectodomain followed by a TβRIIb ectodomain, giving a 60-residue linker, with an N-terminal His tag; also called (TβRII)^2 trap having a 60 amino acid linker
Turning to B1, in the test with TGF-β1 [1], the “IC50, neutralization of TGFβ1 (Mv1Lu luciferase reporter cells)” value is 0.04 nM and the “fold more potent than N-His (TβRII)^2 in neutralization of TGFβ1” value is 4 fold. In addition, the half-inhibitory concentration (IC50) in the test with TGF-β1 [2] was determined as 0.6 nM.

B2: N-His (TβRII)^2 (designed binder)
chain: APMAEGGGQNHHHHHHHHGGSFNPRIPPHVQKSVNNDMIVTDNNGAVKFPQLCKFCDVRFSTCDNQKSCMSNCSITSICEKPQEVCVAVWRKNDENITLETVCHDPKLPYHDFILEDAASPKCIMKEKKKPGETFFMCSCSSDECNDNIIFSEEYNTSNPDIPPHVQKSVNNDMIVTDNNGAVKFPQLCKFCDVRFSTCDNQKSCMSNCSITSICEKPQEVCVAVWRKNDENITLETVCHDPKLPYHDFILEDAASPKCIMKEKKKPGETFFMCSCSSDECNDNIIFSEEYNTSNPD
notes: Two human TβRII ectodomains in tandem with the native 35-residue linker (IPP restored), an N-terminal 8xHis tag and a thrombin site; also called modified N-His (TβRII)^2; bivalent N-His (TβRII)^2
B2: in the test with TGF-β1 [1], the “IC50, neutralization assay in Mv1Lu luciferase reporter cells” value is below 1 nM and the “IC50, neutralization of TGFβ1 (Mv1Lu luciferase reporter cells)” value is 0.16 nM. The molecule also returned a half-maximal inhibitory concentration (IC50) with TGF-β1 [2] of 1.4 nM. The half-maximal inhibitory concentration (IC50) in the test with TGF-β1 [3] was determined as 1.1 nM.

B3: (ActRIIB)^2 (designed binder)
chain: SGSEQKLISEEDLLGRGEAETRECIYYNANWELERTNQSGLERCEGEQDKRLHCYASWRNSSGTIELVKKGCWLDDFNCYDRQECVATEENPQVYFCCCEGNFCNERFTHLPEAGGPEVTYEPPPTAPTSGRGEAETRECIYYNANWELERTNQSGLERCEGEQDKRLHCYASWRNSSGTIELVKKGCWLDDFNCYDRQECVATEENPQVYFCCCEGNFCNERFTHLPEAGGPEVTYEPPPTAPTHHHHHH
Consider B3, for which, in the test with human myostatin (GDF8), the “IC50, neutralization of myostatin in A204 cells with (CAGA)12-luciferase reporter” value is 0.1 nM and the “fold more potent than dimeric ActRIIb-Fc in neutralization of myostatin” value amounted to 10 fold.

B4: Prototype (TβRII)^2 (designed binder)
chain: TIPPEQKLISEEDLLHVQKSVNNDMIVTDNNGAVKFPQLCKFCDVRFSTCDNQKSCMSNCSITSICEKPQEVCVAVWRKNDENITLETVCHDPKLPYHDFILEDAASPKCIMKEKKKPGETFFMCSCSSDECNDNIIFSEEYNTSNPDGGRHVQKSVNNDMIVTDNNGAVKFPQLCKFCDVRFSTCDNQKSCMSNCSITSICEKPQEVCVAVWRKNDENITLETVCHDPKLPYHDFILEDAASPKCIMKEKKKPGETFFMCSCSSDECNDNIIFSEEYNTSNPDHHHHHH
Regarding B4, the IC50 in the test with TGF-β1 or -β3 is 7.6 nM. In the test with TGF-β1 [1], the “IC50, inhibition of TGF-β signaling in Mv1Lu luciferase reporter cells” value was determined as 0.58 nM.

B5: N-His TβRII monomer (receptor)
chain: APMAEGGGQNHHHHHHHHGGSFNPRIPPHVQKSVNNDMIVTDNNGAVKFPQLCKFCDVRFSTCDNQKSCMSNCSITSICEKPQEVCVAVWRKNDENITLETVCHDPKLPYHDFILEDAASPKCIMKEKKKPGETFFMCSCSSDECNDNIIFSEEYNTSNPD
notes: Single TβRII ectodomain with an N-terminal His tag, produced in 293 cells; also called monomeric N-His TβRII; N-His TβRII (293 cells)
B5 gave an IC50 with TGF-β1 [4] of 8.1 nM. The binding result with TGF-β2 was “no binding (tested: 100 nM)”. Further, the “fold higher IC50 than N-His (TβRII)^2” value with TGF-β1 [3] is around 8 fold.

The term IC50 denotes the concentration at which inhibition is half-maximal.

For the origin of these results see patent publication US20130089499A1 (NATIONAL RESEARCH COUNCIL OF CANADA, published 2013).
